A word on the Kd: it is the constant that tells how readily two partners part at equilibrium.

This test addresses T1, GST-tagged A. thaliana Rpn10 (AtRpn10) vWA domain (Arabidopsis thaliana, UniProt P55034 2-193).
T1 construct: also called GST-AtRpn10; GST-Rpn10vWA
T1 sequence: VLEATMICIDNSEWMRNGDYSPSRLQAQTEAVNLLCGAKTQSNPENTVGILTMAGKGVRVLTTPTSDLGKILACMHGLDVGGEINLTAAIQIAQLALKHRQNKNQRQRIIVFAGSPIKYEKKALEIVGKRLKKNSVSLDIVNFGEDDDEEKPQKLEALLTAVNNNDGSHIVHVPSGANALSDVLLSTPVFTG
Kind of test: SPR. The following applies: both partners purified.

B1: onion yellows phytoplasma (OY-M strain) SAP05 (OY_SAP05) (natural protein)
chain: APHEERVGDMRIVNITFSDINSIKNFQPFSQYFDFTLTGPRYNGNIAQFAMIWKIKNPPHNLLGVFFDNNTRDDEDDKYTLEELKQMGNGAKNMYIFWQYEQK
notes: source: E. coli BL21(DE3), purified (Ni-NTA, Superdex 75)
B1: the Kd worked out at 398 ± 39 nM.

B2: aster yellows witches'-broom phytoplasma SAP05 (AYWB_SAP05), mature, 33-135 (natural protein)
chain: APNEEFVGDMRIVNVNLSNIDILKKHETFKKYFDFTLTGPRYNGNIAEFAMIWKIKNPPLNLLGVFFDDGTRDDEDDKYILEELKQIGNGAKNMYIFWQYEQK
notes: as for B1
B2 showed a Kd of 400 ± 39 nM.

Values taken from doi:10.1101/2023.08.24.554544 (bioRxiv, 2023).
